In data set [1] the test system is MCF7 human breast cancer cells. The data set is described as follows: Curcumin uptake in MCF7 cells by fluorescence microscopy. In kind it is cell-based. To be noted: complexed with curcumin. On the procedure: MCF7 human breast cancer cells were obtained from ATCC and maintained at 37° C., 5% CO2 as monolayer cultures in Dulbecco's modified Eagle's medium (DMEM with high glucose containing phenol red) supplemented with 10% (v/v) fetal bovine serum (FBS), gentamicin (50 μg/mL), 100 U penicillin/100 μg/mL streptomycin. Because the loading capacities of curcumin for P•GNP nanocomposites are much larger than those of the proteins in the absence of GNP we prepared two corresponding curcumin controls that represented the bound curcumin levels in P•G NPs and protein polymers alone (Table 2). To avoid any uptake of unbound curcumin by the cells directly, we limited the curcumin amount that is equivalent to the loading capacity of 26 μM of protein samples in 50 mM sodium phosphate buffer, pH 7.4 and allowed to bind for 2 hours at room temperature prior to cell culture studies.
Multiple sets of experiments were performed to record curcumin uptake by image acquisition using FITC filter (Em: 520 nm) under fluorescence microscopy and direct measurement of curcumin uptake in cell extractions. Cells were grown directly on 24-well culture plates (8×10^4 cells/well) for cell extraction or on cover slips for microscopy. After 24 hours of cell plating, cells were treated for 4 or 24 hours with different combination of proteins with or without GNP and/or curcumin. For all the treatments, the total volume of samples with DMEM in 24-well plates was kept constant at 300 μL with proteins prepared at 10 μM concentrations. The ratio of sample amount to number of cells was also kept constant. The results are representative of two such independent sets of experiments.
For fluorescent imaging of curcumin uptake, cells on coverslips were fixed with 300 μL 4% paraformaldehyde solution in DPBS for 20 minutes at room temperature on a plate rocker. […] Cells were viewed using fluorescence microscope IX71 (Olympus) using DAPI (for cell nuclei) and FITC (for curcumin uptake) at 60× magnification while keeping the exposure time for the FITC images constant at 200 milliseconds.

The subject of data set [2] is MCF7 human breast cancer cells. The data set can be described thus: MTS cell viability assay. To be noted: absorbance at 490 nm. (In general: Formazan colour is commonly taken as a measure of viable cells.)
Protocol: (§1) Cell viability measurements were carried out using a CellTiter 96® Aqueous One solution kit (Promega) in a 96-well plate, seeded 1×10^4 cells/well. After 24 hours, the cells were treated for 4 hours or 24 hours with protein polymers and P•G NPs with and without curcumin along with control treatments of curcumin alone and media alone. After the treatment periods, 20 μL [3-(4,5-dimethylthiazol-2-yl)-5-(3-carboxymethoxyphenyl)-2-(4-sulfophenyl)-2H-tetrazolium (MTS) was added to each well, followed by incubation at 37° C. for 3 hours. The plate was centrifuged for 3 minutes at 2500 rpm and then subjected to absorbance measurements at 490 nm (Tables 3 and 4).
Data set [3] is described as follows: Turbidometry, inverse temperature transition (Tt). In kind it is physicochemical. To be noted: midpoint of turbidity at 800 nm. The procedure: The turbidometry, or inverse temperature transition (Tt), was determined via UV-Vis Spectrophotometer Cary-50 (Agilent Technology) equipped with TC 125 temperature controller (Quantum Northwest) in Type 21 quartz cuvette with 10 mm path length (Buck Science) by monitoring the change in turbidity at 800 nm from 25° C. to 80° C. at a rate of 1° C./min. Protein stock solutions for Tt measurement were prepared in 0.2 mg/mL (or 14.3 μM and 14.4 μM for CE1-His6 and E1C-His6, respectively) in 10 mM sodium phosphate buffer, pH 8.0. In order to bring Tt value of all the samples into instrument operation range, highly concentrated NaCl solution was added prior to Tt measurement (Table 1). Measurements were performed on at least two different protein sample preps to calculate the average Tt. The Tt was determined at the midpoint of the normalized turbidity.

A short description of data set [4]: Curcumin loading capacity (small molecule loading). In kind it is physicochemical. To be noted: ratio of curcumin to protein or P•G NP; 2 hours incubation at room temperature. The procedure: Curcumin (6.5 nmol final concentration from 3 mM stock solution in HPLC grade methanol) was incubated with 1.3 nmol of CE1-His6, E1C-His6, CE1-His6•GNP and E1C-His6•GNP at room temperature for 2 hours and loaded onto Bio-Rad Spin6 columns packed with Sephadex G-25 medium beads 0.5 cm high. Bound protein polymer•curcumin complexes (in the presence or absence of GNP) were eluted by size, washed 3 times in 50 μL sodium phosphate buffer, followed by centrifugation for 5 min at 14000 rpm. The beads containing unbound curcumin were collected separately and resuspended back to buffer for solvent extraction. Both bound and unbound curcumin were extracted by adding 150 μL ethyl acetate and quantitatively determined by measuring absorbance at 416 nm. Absorbance was measured in a Hellma 105.201-QS type cuvette (10 mm light path, 100 μL sample) on SpectraMax M2. This binding study was performed on at least three different protein sample preparations to calculate the average loading capacities with errors represented as the standard deviation of the three trials.

Data set [5] in a line: Curcumin release over time. In kind it is physicochemical. To be noted: by 8.25 hrs, room temperature, 50 mM phosphate buffer pH 7.4. The procedure:
Release of curcumin from CE1-His6, E1C-His6, CE1-His6•GNP and E1C-His6•GNP was then investigated. Curcumin (26 nmol) was added to 200 μL of 26 μM (5.2 nmol) protein sample. After 2 hours of incubation at room temperature, the solution was adjusted to contain a final concentration of 0.5 M NaCl. The protein polymer•curcumin complex (in the presence or absence of GNP) were incubated at 45° C. (well above the TO for 30 min and centrifuged to separate protein polymer•curcumin complex from excess curcumin. The pellets were resuspended in 200 μL of 50 mM phosphate buffer, pH 7.4 and kept at room temperature in the dark for release. After 10 min, the suspensions were centrifuged and the supernatant was removed and used for extraction assessment of released curcumin. This resuspension-incubation-spin-release cycle was repeated for the next eight hours at the following time points: 10, 25, 55, 85, 135, 195, 255, 315 and 495 min. Release study was performed on two different protein sample preparations to obtain the averaged release profile. Error bars on the release data represented standard error of the two sample preparations.

In data set [6] the test system is MCF7 human breast cancer cells.
Protocol: as §1
For data set [7] the following is noted: protein polymer without GNP; data from Haghpanah et al., Mol. Biosys. 2010; cited from earlier work.

Several values for one entry are separate records, joined by “and”; a condition that tells them apart may be missing. Equal values may be shown once. Marks after values point to notes of the source that are not given here.

Take `COc1cc(/C=C/C(=O)CC(=O)/C=C/c2ccc(O)c(OC)c2)ccc1O` [curcumin]: the “curcumin uptake visualized by fluorescence (FITC channel)” value (“curcumin uptake visualized” for short) in data set [1] was “did not show any uptake”. Besides, the “Abs. (MTS Assay)” value in data set [2] (4 Hour Treatment, listed as CCM1) was 2.039 ± 0.00 and 1.999 ± 0.05; in data set [2] (4 Hour Treatment, listed as CCM2), 2.044 ± 0.01 and 2.025 ± 0.02; in data set [2] (24 Hour Treatment, listed as CCM1), 1.974 ± 0.01 and 2.034 ± 0.02; in data set [2] (24 Hour Treatment, listed as CCM2) it was 1.98 ± 0.04 and 1.999 ± 0.01.

B1: E1C-His6: protein diblock polymer with N-terminal hexahistidine tag, elastin-like E1 domain then COMPcc coiled-coil C domain (SEQ ID NO: 14) (protein)
chain: MRGSHHHHHHGSKPIAASAVPGVGVPGVGVPGFGVPGVGVPGVGVPLEGSELAATATATATATATAACGDLAPQMLRELQETNAALQDVRELLRQQVKEITFLKNTVMESDASGLQAATATATATATATAVDLQPS
On to B1, for which the Tt in data set [3] (0.1818 mg/mL protein, 0.45M NaCl) came out at 33.8 ± 2.2 °C. For the same molecule, the “CCM/P molar binding ratio” value in data set [4] turned out to be 0.41 ± 0.10. Further, the “release of free curcumin” value in data set [5] is recorded as 78.8%. The “curcumin uptake visualized” value in data set [1] is reported as “uptake albeit substantially less than the P•G NPs”. Further, the “cytotoxicity (MTS assays)” value in data set [6] is given as “neither the protein polymer nor P•G NPs s exhibited cytotoxicity”. Moreover, the “Size of protein particles” value in data set [7] is 27.9 ± 3.7^a nm.

B2: CE1-His6: protein diblock polymer with N-terminal hexahistidine tag, COMPcc coiled-coil C domain then elastin-like E1 domain (SEQ ID NO: 13) (protein)
chain: MRGSHHHHHHGSACELAATATATATATATAACGDLAPQMLRELQETNAALQDVRELLRQQVKEITFLKNTVMESDASGLQAATATATATATATAVDKPIAASAVPGVGVPGVGVPGFGVPGVGVPGVGVPLEGSGTGAKLN
Consider B2, for which, in data set [3] (0.1621 mg/mL protein, 0.946M NaCl), the Tt is 55.0 ± 0.8 °C. Further, the “CCM/P molar binding ratio” value in data set [4] stood at 0.40 ± 0.06. The “release of free curcumin” value in data set [5] is listed as 77.0%. In addition, the “curcumin uptake visualized” value in data set [1] is “uptake albeit substantially less than the P•G NPs”. Further, the “cytotoxicity (MTS assays)” value in data set [6] is reported as “neither the protein polymer nor P•G NPs s exhibited cytotoxicity”. Also, the “Size of protein particles” value in data set [7] is 26.0 ± 3.0^a nm.

The record behind these values is US10463752B2, “Protein polymer gold nanoparticle hybrid materials for small molecule delivery” (New York University, priority 2016, dated 2019).
